One assay concerns the target RBD of Rf1 (Bat SARS CoV Rf1/2004, UniProt Q0QDZ0). The assay can be described thus: ELISA.
A further assay addresses SARS-CoV-2 WA1 RBD (SARS-CoV-2, UniProt P0DTC2). As to the kind of experiment: crystal structure.

B1: 10-40 (antibody, V domains shown)
VH: QLQLQESGPGLVKPSETLSLTCTVSGGSISSSNFYWGWIRQPPGKGLEWIASITYSGRTFYNPSLKSRVAISVDTSKNQFSLKLSSVTAADTAVYYCARTFPSYYDRSGYHYLNYGMDVWGQGTTVTVSS
VL: NFMLTQPHSMSESPGKTVTISCTRSSGSIASNYVQWYQQRPGSSPTTVIYEDNQRPSGVPDRFSGSIDSSSNSASLTISGLKTEDEADYYCQSYDSSSWVFGGGTKLTVL
Regarding B1, the binding result with RBD of Rf1 was “binds”.

B2: 10-40 Fab (Fab, V domains shown)
VH: QLQLQESGPGLVKPSETLSLTCTVSGGSISSSNFYWGWIRQPPGKGLEWIASITYSGRTFYNPSLKSRVAISVDTSKNQFSLKLSSVTAADTAVYYCARTFPSYYDRSGYHYLNYGMDVWGQGTTVTVSS
VL: NFMLTQPHSMSESPGKTVTISCTRSSGSIASNYVQWYQQRPGSSPTTVIYEDNQRPSGVPDRFSGSIDSSSNSASLTISGLKTEDEADYYCQSYDSSSWVFGGGTKLTVL
As for B2, in the assay with SARS-CoV-2 WA1 RBD, the binding result was “binds”.

B3: 10-28 (antibody, V domains shown)
VH: QVQLVESGGGVVQPGRSLRLSCAASGFTFSSYDMHWVRQAPGKGLEWVAVISYDGSSKFYAESVKGRFTISRDNSKNTLYLQMNSLRAEETAVYYCVKDGEQLVPLFDYWGQGTLVTVSS
VL: not shown
For the molecule B3, the binding result with RBD of Rf1 is recorded as “binds”.

B4: 10-28 Fab (Fab, V domains shown)
VH: QVQLVESGGGVVQPGRSLRLSCAASGFTFSSYDMHWVRQAPGKGLEWVAVISYDGSSKFYAESVKGRFTISRDNSKNTLYLQMNSLRAEETAVYYCVKDGEQLVPLFDYWGQGTLVTVSS
VL: not shown
Consider B4, for which the binding result in the assay with SARS-CoV-2 WA1 RBD was “binds”.

The values above are taken from doi:10.1101/2021.12.11.472236 (bioRxiv, 2021).
